From patent publication US20220153839A1

B1: XBR1-402 chimeric antigen receptor with short spacer, on CD8+ T cells (protein, part only; not given: scFv linker, spacer, signaling parts, not shown: large carriers)
scFv, part: QEQQKESGGGLFKPTDTLTLTCTASGFDISSYYMSWVRQAPGNGLEWIGAIGISGNAYYASWAKSRSTITRNTNLNTVTLKMTSLTAADTATYFCARDHPTYGMDLWGPGTLVTVSSSYELTQLPSVSVSLGQTARITCEGNNIGSKAVHWYQQKPGLAPGLLIYDDDERPSGVPDRFSGSNSGDTATLTISGAQAGDEADYYCQVWDSSAYVFGGGTQLTVTG
B2: XBR1-402 chimeric antigen receptor with long spacer, on CD8+ T cells (protein, part only; not given: scFv linker, spacer, signaling parts, not shown: large carriers)
scFv, part: QEQQKESGGGLFKPTDTLTLTCTASGFDISSYYMSWVRQAPGNGLEWIGAIGISGNAYYASWAKSRSTITRNTNLNTVTLKMTSLTAADTATYFCARDHPTYGMDLWGPGTLVTVSSSYELTQLPSVSVSLGQTARITCEGNNIGSKAVHWYQQKPGLAPGLLIYDDDERPSGVPDRFSGSNSGDTATLTISGAQAGDEADYYCQVWDSSAYVFGGGTQLTVTG

Molecular target: ROR1 (reagent by which anti-ROR1 recognition of CAR-T cells was read; form not stated)
Sequence (Q01973 24-403): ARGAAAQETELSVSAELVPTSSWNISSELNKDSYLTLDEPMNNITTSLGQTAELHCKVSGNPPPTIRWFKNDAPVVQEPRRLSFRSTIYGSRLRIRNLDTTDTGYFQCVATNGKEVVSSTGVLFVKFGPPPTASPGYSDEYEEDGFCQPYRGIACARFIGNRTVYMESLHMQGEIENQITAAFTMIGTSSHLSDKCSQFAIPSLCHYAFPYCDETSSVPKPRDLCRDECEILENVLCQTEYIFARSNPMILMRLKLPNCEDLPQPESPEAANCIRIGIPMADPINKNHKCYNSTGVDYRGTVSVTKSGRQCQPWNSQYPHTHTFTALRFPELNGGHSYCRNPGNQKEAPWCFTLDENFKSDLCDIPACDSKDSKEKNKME
Assay: FACS of EGFR+ transduced T cells

| Binder | percent of CAR-T cells with anti-ROR1 recognition |
| --- | --- |
| B1 | > 90% |
| B2 | > 90% |
